Results reported in the RNAGym collection of RNA variant scans (doi:10.1073/pnas.2313332121).

B1: TPR t1 (parent)
chain: GACCAAUCUGCCCUCAGAGCUCGAGAACAUCUUCGGAUGCAGAGGAGGCAGGCUUCGGUGGCGCGAUAGCGCCAACGUCCUCAACCUCCAAUGCAUCCCACCACAUGAUGAUGCCUGAAGAGCCUUGGUUUUUUG

Variants of: B1
Test: polymerase ribozyme fitness, log enrichment relative to wild type (log ratio); higher = more active; in vitro selection for triplet polymerase activity
Procedure, shortened: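 In triplicate, a single round of in vitro selection was run on each mutant library, PCR-built and transcribed, covering one subunit of a heterodimeric triplet polymerase ribozyme. Frozen incubation at −7 °C followed annealing with a biotinylated primer, partner subunit and triplets, and extended constructs were then gel-excised, streptavidin-captured and taken through RT-PCR. Fitness is the logarithm of genotype enrichment over wild-type enrichment, from inverse-variance-weighted replicate averages of Illumina-sequenced inputs and outputs. […] only genotypes with ≥10 input reads and ≥1 read per output were kept.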

Variant	polymerase ribozyme fitness (log ratio)
C22A A37U A43C C114A A118G	-6.5
U21A G35U A74U A111U	-6.43
C22A U78C	-6.19
C22G G52U C73U A95C	-5.41
C22G G52A G63U U81G G110A	-7.15
U21A G61C	-1.97
C22G C31U G51C U81A G93A C123U	-6.15
U21A U112A	1.06
U21A A50C A68G	-6.32
U21A G63U	-1.92
C22A A26C A27U C86A U112C	-6.59
U21C C72U G93A U96G	-2.4
C22G C56U C88U A91C	-4.75
U21A A26U	-4.35
C22G G63C C80A	-5.79
U21A C22A A27C C89U C114U A121U	-3.32
U21A A43U C72U U129A	-3.56
C22G G42U G44U C89U	-4.83
C22G G61C C124U U133C	-2.74
C22A G52A C124U	-4.37
U21G C88A	-1.66
U21C C73A C89A	-2.96
U21G A46U G69U G117C	-4.95
U21A A24G G36U G61C G120U U132A	-3.58

Variant	polymerase ribozyme fitness (log ratio)
C22A A111C A119U	-6.95
C22A U67C C80A U96A U109A	-6.8
C22A G60U	-4.21
C22A G60A	-4.26
C22G G42U A84U C115A C124G	-3.07
C22G A74C	-3.02
U21C G52C G61A C82A	-0.816
U21C G45C C56U U109A A111U C124G	-4.35
U21A G39U C64U A91C	-2.67
U21C U54A G93A A111C	-0.948
U21A A29C G48A	-3.86
C22A C82U A90U U112A	-4.93
C22G C98U	-4.52
U21A C34A A37G C98G	-2.68
C22G A50C G60U C115A	-2.18
U21A C70A	-3.21
C22G G48C C72U C124U	-2.66
C22G G52U A111C	-3.81
C22G G44C G48U A121U	-3.43
U21C G35A U130A	-4.76
C22G A29C A84C	-3.73
U21C G39A U54A U78A C98U G110U	-6.3
U21A G42A A46U G60A	-4.47
C22A G61A A66C	-5.28

Variant	polymerase ribozyme fitness (log ratio)
U21A C72G G77C C85A	-3.48
U21C U38G C49A G120U U130G U131G	-4.41
C22A G120A	-4.53
U21C G36U C64U	-0.911
U21C A27U	-4.9
C22A C70A G122U	-5.4
U21C G58C	-0.199
U21A G52A A75U C115A C124A	1.07
C22G G63C G69C U112A	-5.1
U21A C88G	-0.967
U21C A29U C62U A84C U112A A119G G120C	-1.53
C22G C49A G127A U129G	-4.21
C22G G60C A95C A121U	-2.32
U21C C72U	-0.489
U21G G71U	-2.37
C22G G52U G63C G93A	-4.47
C22G A37U C104U U132A	-3.57
C22A C49G G69U C85U	-2.28
C22A C73U A83G C115A	-4.8
C22G A27C	-4.37
C22G C28U A37U G48A G110C	-3.85
C22G G47U	-4.11
U21G C22A A74G	-4.4
U21C G48U C53A G117A	-1.81

Variant	polymerase ribozyme fitness (log ratio)
U21G C34A C49U C102G C114A	-8.62
C22G A50G	-3.5
U21A A50G C72U A95G A105C	-2.73
C22G G60A	-3.33
C22G G60C	-3.23
U21C G63C	-0.656
C22G C104A	-5.33
U21C U54C G63C C80A A105C C115U A118C	-7.47
U21G A46G G48U A100C C102A	-5.54
U21C C56A G69U C70U U96A A119G	-2.46
C22A C56A	-3.44
U21A A103U	-6.15
C22G G63U C88G	-5.64
C22A C124A U134C	-4.93
U21C U112G	-0.886
U21A U59A U81G C82G C115U	-5.96
U21C G69A C104U	-2.28
C22A G63A C94A A100U C115A	-5.85
C22G G57A G63A C101A A105U	-6.73
C22G G57A C124U	-2.07
U21G C56A C70U C89A G113U	-3.69
U21G G45U C101A	-3.2
U21G G120U C123A	-1.07
C22G A118G A121U	-1.54

Variant	polymerase ribozyme fitness (log ratio)
U21A A91U	-2.43
U21C G63C G120A	-0.168
U21G C40U U87G	-1.55
U21A A41U G60A U96A	-4.01
C22G C104A C123A	-3.01
U21G G51U G69C A103U A111U G122U	-7.01
U21A G52C C56A C76U C101U	-3.81
U21C C101U	-0.578
U21C G120U	-0.0201
C22A A66C G69U G93C	-5.35
U21A C53U A74C	-0.636
C22G A37U A41C C53U	-3.91
C22G G35C	-5.43
U21G C62A	-2.26
C22A G44U C62U U112G	-5.2
C22G C40A	-4.68
C22A U33C C49U C79A C123G	-7.05
U21A G44U C97U G113A	-2.33
C22G A26C G110U	-6.02
U21A C70A C86U A111C	-5.59
C22A A84U	-5.54
C22A G36U C88U C115A	-5.17
C22G A26C C31G G45U G60U	-8.09
C22A C73U	-5.07

Variant	polymerase ribozyme fitness (log ratio)
C22A C73G	-4.45
U21C A27G C56A C88A	-4.66
C22G A24U U30C A46G G48U G60C G110U	-6.93
U21C A29U C53G G61A C89U	-3.59
U21A A46G C114G	-3.92
U21A U59C C123A G128C	-2.93
C22G C53U G57C U78C C104A C124G	-1.59
U21G C88A C97A A121C	-5.55
C22G C31A U92C U96A A111U	-5.09
U21C C72G A90C	-1.98
C22G A95G C104U	-2.37
U21C A46G C53A G71C C98U	-6.73
C22G A90C U92C G120C	-3.7
U21A C28U A37G G61U	-4.5
C22G C56U C104A	-2.51
C22G G36U	-4.91
C22G C123A	-3.18
C22G C123U	-2.66
C22G G23A G52C	-3.57
U21A C62G C73U	-2.55
C22G C56U	-3.32
U21G C97G U112G	-5.7
U21A A41U C70U A95U	-4.21
C22A G39U	-5.33

Variant	polymerase ribozyme fitness (log ratio)
U21C C49A U78G C123A	-1.05
U21C C72G C85A U116C	-3.42
C22A A26G A83U	-3.1
U21A G36C G113U U133A	-2.25
U21G U38C G71C C99G C114U G120U A121U	-7.22
C22A A119G	-3.88
C22A C123A	-4.13
U21C G60C	-0.312
C22G G36A G47C A119U C124G	-3.6
U21G A46C C86U	-2.16
C22G G44C	-4.3
C22G G44U	-4.12
U21C G57U C72G	-2.29
C22G C53U	-4.09
C22G G63U	-4.31
U21A C102G G113U A118U U129G	-6.08
U21G C72G	-1.39
U21A A74C C98A C114G U133G	-7.51
C22G C70A	-4.66
C22G C49U G110C	-5.9
C22G C62G C104U G120A	-4.19
U21A G42U C98U C104U C114G C124A	-5.22
U21A C56U C62U C85G	-3.76
